From the supplement of paper PMC10065799, “High-throughput profiling of sequence recognition by tyrosine kinases and SH2 domains using bacterial peptide display” (eLife, 2023)

Experiments:
[1] = target: Grb2 SH2 (UniProt P62993); test: SH2 binding enrichment of the phosphorylated peptide, bacterial display (enrichment ratio); higher = better substrate or ligand; peptides without Tyr show the background
[2] = target: SHP2-C SH2; test: as above
[3] = target: c-Src SH2; test: as above
[4] = test system: AncSZ; test: phosphorylation enrichment, bacterial display (enrichment ratio); higher = better substrate or ligand; peptides without Tyr show the background
[5] = target: Jak2 (UniProt O60674); test: as above
Jak2, sequence (O60674 whole entry, looked up): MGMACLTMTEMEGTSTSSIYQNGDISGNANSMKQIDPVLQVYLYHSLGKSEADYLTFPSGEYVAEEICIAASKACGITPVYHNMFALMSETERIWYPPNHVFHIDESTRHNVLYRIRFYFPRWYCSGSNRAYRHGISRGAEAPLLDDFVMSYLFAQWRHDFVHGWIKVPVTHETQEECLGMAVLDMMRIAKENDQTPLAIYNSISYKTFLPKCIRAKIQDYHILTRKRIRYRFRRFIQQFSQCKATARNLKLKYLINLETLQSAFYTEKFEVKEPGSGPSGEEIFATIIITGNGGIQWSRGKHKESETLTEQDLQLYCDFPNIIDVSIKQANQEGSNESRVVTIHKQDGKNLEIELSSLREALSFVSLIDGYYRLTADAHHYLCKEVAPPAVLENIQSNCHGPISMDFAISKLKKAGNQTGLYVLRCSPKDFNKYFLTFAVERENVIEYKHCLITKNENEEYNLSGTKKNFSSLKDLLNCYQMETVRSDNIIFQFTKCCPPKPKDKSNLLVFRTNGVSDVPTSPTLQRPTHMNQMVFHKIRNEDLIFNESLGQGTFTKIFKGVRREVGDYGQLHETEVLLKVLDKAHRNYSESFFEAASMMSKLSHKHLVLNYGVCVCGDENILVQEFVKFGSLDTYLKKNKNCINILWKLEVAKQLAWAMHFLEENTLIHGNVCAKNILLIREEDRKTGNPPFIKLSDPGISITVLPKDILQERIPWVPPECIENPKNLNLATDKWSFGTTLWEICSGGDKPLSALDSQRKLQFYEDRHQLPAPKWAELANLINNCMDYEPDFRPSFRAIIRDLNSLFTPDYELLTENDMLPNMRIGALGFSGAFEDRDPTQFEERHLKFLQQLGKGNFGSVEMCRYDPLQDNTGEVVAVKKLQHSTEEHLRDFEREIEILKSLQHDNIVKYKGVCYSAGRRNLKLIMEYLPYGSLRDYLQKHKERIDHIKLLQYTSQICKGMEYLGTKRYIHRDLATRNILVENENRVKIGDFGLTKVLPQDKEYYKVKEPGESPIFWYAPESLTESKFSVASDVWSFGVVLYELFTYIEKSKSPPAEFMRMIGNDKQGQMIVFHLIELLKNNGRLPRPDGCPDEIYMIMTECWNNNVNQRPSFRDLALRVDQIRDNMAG

[6] = target: EPHB1 (UniProt P54762); test: as above
[7] = target: EPHB2 (UniProt P29323); test: as above
EPHB2, sequence (P29323 whole entry, looked up): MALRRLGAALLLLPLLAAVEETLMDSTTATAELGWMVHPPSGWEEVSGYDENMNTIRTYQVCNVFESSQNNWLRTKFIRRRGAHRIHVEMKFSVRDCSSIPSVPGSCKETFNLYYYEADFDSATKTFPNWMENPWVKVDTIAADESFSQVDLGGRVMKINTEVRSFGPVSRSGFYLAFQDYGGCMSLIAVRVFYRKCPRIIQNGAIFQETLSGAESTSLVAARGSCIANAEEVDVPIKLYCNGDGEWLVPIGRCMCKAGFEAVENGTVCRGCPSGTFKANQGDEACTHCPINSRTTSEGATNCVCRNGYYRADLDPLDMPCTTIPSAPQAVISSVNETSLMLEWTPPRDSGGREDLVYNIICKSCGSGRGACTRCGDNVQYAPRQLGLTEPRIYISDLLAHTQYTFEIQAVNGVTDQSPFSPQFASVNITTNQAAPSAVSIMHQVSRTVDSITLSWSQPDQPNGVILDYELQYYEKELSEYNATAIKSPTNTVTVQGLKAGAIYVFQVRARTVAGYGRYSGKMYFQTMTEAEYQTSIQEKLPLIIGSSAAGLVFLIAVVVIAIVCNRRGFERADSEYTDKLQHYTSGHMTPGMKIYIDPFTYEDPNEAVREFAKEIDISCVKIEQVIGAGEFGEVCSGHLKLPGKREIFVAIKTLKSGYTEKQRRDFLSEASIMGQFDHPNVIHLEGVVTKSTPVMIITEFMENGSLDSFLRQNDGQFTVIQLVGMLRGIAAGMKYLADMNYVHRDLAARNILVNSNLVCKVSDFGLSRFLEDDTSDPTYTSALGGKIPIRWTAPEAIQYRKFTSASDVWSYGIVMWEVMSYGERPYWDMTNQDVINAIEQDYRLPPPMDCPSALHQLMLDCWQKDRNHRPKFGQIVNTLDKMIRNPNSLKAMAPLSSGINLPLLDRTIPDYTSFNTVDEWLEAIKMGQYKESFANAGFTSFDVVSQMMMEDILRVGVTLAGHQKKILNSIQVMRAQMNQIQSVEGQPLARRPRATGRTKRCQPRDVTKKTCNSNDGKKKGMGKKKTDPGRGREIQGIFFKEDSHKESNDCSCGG

[8] = test system: Fer (mouse); test: as above
[9] = target: Fyn (UniProt P06241); test: as above
Fyn, sequence (P06241 whole entry, looked up): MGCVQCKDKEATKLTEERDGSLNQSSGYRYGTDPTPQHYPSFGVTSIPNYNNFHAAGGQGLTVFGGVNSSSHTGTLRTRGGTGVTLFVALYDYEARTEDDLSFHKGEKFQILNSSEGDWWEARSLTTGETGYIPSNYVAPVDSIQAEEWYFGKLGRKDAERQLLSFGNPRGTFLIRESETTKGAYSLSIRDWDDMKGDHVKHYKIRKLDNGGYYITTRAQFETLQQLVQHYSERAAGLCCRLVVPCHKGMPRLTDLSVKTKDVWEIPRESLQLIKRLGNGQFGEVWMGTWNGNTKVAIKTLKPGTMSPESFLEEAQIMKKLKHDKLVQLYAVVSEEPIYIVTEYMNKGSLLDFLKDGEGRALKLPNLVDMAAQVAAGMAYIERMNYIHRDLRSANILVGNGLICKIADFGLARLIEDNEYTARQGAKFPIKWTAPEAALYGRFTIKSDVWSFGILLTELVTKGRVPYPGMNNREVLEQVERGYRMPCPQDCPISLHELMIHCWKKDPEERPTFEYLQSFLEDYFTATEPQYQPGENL

[10] = target: FGFR1 (UniProt P11362); test: as above
[11] = target: MERTK (UniProt Q12866); test: as above
[12] = target: FGFR3 (UniProt P22607); test: as above
FGFR3, sequence (P22607 whole entry, looked up): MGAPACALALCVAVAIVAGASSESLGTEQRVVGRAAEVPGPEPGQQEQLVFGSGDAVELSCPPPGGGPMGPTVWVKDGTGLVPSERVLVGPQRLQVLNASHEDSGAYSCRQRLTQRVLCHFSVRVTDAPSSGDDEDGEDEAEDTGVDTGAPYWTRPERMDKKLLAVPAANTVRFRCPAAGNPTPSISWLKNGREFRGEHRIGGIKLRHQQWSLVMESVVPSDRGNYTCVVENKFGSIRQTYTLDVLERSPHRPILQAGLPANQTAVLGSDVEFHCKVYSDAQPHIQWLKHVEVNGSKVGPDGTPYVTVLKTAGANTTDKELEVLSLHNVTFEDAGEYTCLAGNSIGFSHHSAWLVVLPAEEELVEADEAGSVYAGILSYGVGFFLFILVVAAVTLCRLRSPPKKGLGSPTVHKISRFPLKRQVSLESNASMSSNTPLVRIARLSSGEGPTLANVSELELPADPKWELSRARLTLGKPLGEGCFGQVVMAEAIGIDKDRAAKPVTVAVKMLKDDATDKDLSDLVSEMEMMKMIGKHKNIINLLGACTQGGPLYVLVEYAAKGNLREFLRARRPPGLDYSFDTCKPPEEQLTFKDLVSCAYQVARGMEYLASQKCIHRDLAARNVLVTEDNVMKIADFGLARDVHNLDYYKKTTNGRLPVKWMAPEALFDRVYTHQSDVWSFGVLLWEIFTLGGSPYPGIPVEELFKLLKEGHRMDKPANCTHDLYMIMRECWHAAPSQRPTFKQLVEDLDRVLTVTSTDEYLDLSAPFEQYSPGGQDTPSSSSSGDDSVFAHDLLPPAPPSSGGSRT

[13] = target: Fes (UniProt P07332); test: as above
Fes, sequence (P07332 whole entry, looked up): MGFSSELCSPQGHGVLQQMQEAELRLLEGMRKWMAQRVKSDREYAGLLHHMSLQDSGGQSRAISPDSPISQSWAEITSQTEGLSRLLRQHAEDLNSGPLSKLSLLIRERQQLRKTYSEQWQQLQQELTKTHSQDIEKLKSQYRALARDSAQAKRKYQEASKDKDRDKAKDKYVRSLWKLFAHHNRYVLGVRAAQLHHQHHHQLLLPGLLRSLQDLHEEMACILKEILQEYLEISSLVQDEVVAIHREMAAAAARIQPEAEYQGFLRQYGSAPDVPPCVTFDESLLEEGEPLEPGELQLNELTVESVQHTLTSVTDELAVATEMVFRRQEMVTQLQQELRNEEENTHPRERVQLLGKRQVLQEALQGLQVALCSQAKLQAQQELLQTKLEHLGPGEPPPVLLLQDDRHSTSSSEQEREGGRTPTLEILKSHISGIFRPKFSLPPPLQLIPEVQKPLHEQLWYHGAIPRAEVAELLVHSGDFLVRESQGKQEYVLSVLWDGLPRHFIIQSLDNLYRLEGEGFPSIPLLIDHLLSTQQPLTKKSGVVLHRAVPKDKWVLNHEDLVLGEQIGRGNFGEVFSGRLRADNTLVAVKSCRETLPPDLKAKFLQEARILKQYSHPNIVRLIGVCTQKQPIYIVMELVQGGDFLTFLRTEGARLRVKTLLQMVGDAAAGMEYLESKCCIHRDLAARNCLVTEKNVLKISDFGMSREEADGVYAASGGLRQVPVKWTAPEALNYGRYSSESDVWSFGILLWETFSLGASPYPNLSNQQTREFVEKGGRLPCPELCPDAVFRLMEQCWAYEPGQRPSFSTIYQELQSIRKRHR

[14] = test system: c-Src; test: as above
[15] = test system: c-Abl (mouse); test: as above
[16] = target: Hck (UniProt P08631); test: as above
Hck, sequence (P08631 whole entry, looked up, the tested form may be a part): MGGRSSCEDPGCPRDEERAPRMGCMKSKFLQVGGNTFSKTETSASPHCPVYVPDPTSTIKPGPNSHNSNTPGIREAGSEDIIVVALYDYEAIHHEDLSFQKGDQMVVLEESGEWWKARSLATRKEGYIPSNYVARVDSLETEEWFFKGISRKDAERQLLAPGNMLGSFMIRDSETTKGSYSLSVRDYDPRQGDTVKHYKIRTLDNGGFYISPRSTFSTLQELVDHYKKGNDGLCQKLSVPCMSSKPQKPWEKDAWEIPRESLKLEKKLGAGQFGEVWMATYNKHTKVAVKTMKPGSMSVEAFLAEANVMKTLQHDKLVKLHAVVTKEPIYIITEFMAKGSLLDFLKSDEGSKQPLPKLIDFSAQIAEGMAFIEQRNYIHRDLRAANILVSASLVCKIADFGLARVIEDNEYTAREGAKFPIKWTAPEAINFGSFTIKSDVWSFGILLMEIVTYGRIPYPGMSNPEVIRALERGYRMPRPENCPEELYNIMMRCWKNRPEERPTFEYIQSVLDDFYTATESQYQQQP
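Throughout, for SH2 binding enrichment of the phosphorylated peptide, bacterial display: peptide library displayed on the E. coli surface as eCPX fusions, selected cells deep-sequenced, score is each peptide's frequency after selection divided by its frequency in the input.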
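Throughout, for phosphorylation enrichment, bacterial display: 11-residue human phosphosite peptides and single-mutation variants displayed on the E. coli surface, counted by deep sequencing, each peptide's frequency after selection divided by its frequency in the unselected input library; frequency after pTyr selection over input frequency; kinase dosed for 20-30% of maximal phosphorylation in three min.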

SH2 binding enrichment [1]	SH2 binding enrichment [2]	SH2 binding enrichment [3]	Sequence	phosphorylation enrichment [4]	phosphorylation enrichment [5]	phosphorylation enrichment [6]	phosphorylation enrichment [7]	phosphorylation enrichment [8]	phosphorylation enrichment [9]	phosphorylation enrichment [10]	phosphorylation enrichment [11]	phosphorylation enrichment [12]	phosphorylation enrichment [13]	phosphorylation enrichment [14]	phosphorylation enrichment [15]	phosphorylation enrichment [16]
0.996	1.18	0.785	AIMSFYAALIN [RYR1_Y2426_D2431N]	1.13	1.06	1.14	0.991	0.672	0.508	0.575	1.09	0.772	1.3	0.497	1	0.764
0.975	0.886	0.758	NTFEKYWLFFQ [GATM_Y103_P105L_YF]	1.29	1.2	0.721	0.682	0.478	0.501	0.761	0.544	1	1.44	0.538	1	0.68
0.975	1.08	0.756	CTTIHYNFMFN [TP53_Y234_C238F_YF]	1.27	1.34	0.786	0.684	0.789	0.52	0.676	0.595	0.945	1.61	0.586	1.04	0.569
1.94	1.95	1.23	RLLVVFPWTQR [HBB_Y36_Y36F]	2.13	1.59	0.574	0.766	0.608	0.545	0.67	0.784	1.08	1.73	0.584	1.11	0.829
0.923	0.767	0.685	DNAFQYMLTDR [MYH7_Y164_YF]	0.955	0.738	0.44	0.496	0.472	0.47	0.461	0.374	0.584	1.02	0.543	0.47	0.494
0.773	0.653	0.486	EPAVLYNLKER [MYH7_Y103_D107E]	0.804	0.74	0.354	0.547	0.332	0.511	0.506	0.388	0.524	0.854	0.694	0.687	0.72
0.835	0.805	0.464	TLLAFYMGNFS [GLB1_Y552_P549L]	1.18	1.59	0.943	0.661	0.559	0.408	0.435	0.625	0.839	1.49	0.98	1.06	0.62
